Assay results from paper PMC3439906.

Target: M.EcoKI MTase (M2S1 methyltransferase core of the EcoKI Type I RM system) (E. coli K12) (UniProt P08957)
Experiment: ITC

Sequence of UniProt P08957 (P08957 whole entry, chain 1 of 2): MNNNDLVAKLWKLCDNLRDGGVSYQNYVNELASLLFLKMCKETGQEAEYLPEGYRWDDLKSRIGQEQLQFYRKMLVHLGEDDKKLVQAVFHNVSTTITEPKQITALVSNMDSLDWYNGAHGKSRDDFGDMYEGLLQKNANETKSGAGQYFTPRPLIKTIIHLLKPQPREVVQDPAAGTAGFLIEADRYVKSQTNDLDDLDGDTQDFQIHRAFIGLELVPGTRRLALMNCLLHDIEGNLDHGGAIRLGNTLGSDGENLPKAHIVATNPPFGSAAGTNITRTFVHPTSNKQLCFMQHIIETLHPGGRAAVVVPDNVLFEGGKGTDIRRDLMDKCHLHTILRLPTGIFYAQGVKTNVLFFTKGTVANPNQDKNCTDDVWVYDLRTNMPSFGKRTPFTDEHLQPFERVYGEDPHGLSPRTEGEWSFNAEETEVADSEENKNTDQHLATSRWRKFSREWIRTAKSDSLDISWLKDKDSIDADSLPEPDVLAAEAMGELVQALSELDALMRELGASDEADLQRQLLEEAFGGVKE
Sequence of UniProt P08957 (P05719 whole entry, chain 2 of 2, further chain): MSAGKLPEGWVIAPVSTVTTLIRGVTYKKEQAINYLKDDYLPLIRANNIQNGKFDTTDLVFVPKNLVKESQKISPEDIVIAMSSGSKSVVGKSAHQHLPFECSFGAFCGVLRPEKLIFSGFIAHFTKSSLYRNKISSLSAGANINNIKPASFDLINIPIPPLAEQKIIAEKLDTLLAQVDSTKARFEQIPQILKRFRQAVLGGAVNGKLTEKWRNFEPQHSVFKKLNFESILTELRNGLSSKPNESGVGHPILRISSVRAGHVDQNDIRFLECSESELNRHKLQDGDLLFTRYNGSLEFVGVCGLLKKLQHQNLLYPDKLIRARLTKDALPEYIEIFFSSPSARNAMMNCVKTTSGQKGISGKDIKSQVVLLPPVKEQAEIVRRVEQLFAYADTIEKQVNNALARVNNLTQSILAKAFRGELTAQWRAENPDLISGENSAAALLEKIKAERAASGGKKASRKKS

Substance: Ocr/POcr (natural protein)
- dH: -15.3 kcal/mol
- stoichiometry N (Ocr dimers per M.EcoKI): 0.89
